# Laboratory results reported in patent publication US20090060916A1 (published 2009).
# Several values for one entry are separate records, joined by “and”; a condition that tells them apart may be missing. Equal entries are not always repeated.
# T1: human IL-4 (human, UniProt P05112 25-153, biotinylated in the receptor binding assay and on the Biacore chip)
# T1 sequence (looked up): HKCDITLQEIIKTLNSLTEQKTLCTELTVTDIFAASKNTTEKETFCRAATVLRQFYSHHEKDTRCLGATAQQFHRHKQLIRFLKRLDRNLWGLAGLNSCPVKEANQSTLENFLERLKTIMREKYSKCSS
# T2: rhesus IL-4 (rhesus, UniProt P51492 25-153)
# T2 sequence (looked up): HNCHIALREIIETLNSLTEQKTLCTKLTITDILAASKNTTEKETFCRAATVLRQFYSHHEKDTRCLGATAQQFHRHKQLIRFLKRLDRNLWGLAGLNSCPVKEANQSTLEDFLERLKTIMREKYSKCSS
# Legend:
# [1] = molecular target: T3, human IL-13 (human, UniProt P35225 35-146, biotinylated on the Biacore chip); assay: DOM10 RBA (IL-13 sandwich ELISA per paragraph 473)
# T3 construct: also called hIL-13; recombinant human IL-13
# T3 sequence (P35225 35-146 limits assumed): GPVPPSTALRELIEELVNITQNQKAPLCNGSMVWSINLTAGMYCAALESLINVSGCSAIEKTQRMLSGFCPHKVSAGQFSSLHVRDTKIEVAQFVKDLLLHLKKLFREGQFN
# Method: (§1) A MAXISORP™ plate (high protein binding ELISA plate, Nunc, Denmark) was coated overnight with 2.5 μg/ml coating antibody (Module Set, Bender MedSystems, Vienna, Austria), then washed once with 0.05% (v/v) Tween 20 in PBS before blocking with 0.5% (w/v) BSA 0.05% (v/v) Tween 20 in PBS. […] The plate was then incubated with TMB substrate (KPL, Gaithersburg, USA), and the reaction was stopped by the addition of HCl and the absorbance read at 450 nm.
# These in-line fusions were constructed and expressed as described above. […] After this incubation, the level of cell proliferation was determined.
# [2] = molecular target: T1, human IL-4; assay: cell-based or functional assay
# [3] = molecular target: T2, rhesus IL-4; assay: inferred from TF-1 proliferation with rhesus IL-4
# Method: The mixture was incubated for 72 hours at 37° C. 5% CO₂. […] 96® reagent (colorometric reagent for determining viability, Promega, Madison, USA) was then added and the number of cells per well was quantified by measuring the absorbance at 490 nm.
# A dose-response of the dAb will determine the ND50 in this set up.
# [4] = molecular target: cynomolgous IL-13 (cynomolgous, UniProt Q0PW92 19-132, The Biacore assay used biotinylated cIL-13 according to our card. The biotin cannot be carried in the letters.); assay: cell-based or functional assay
# Sequence of cynomolgous IL-13 (Q0PW92 entry or part of it limits assumed, form in doubt): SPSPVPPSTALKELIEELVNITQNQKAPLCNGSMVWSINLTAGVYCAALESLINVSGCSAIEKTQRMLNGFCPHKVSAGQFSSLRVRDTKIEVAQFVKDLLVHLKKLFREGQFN
# [5] = molecular target: T3, human IL-13; assay: cell-based or functional assay
# [6] = molecular target: T3, human IL-13; assay: IL-13 receptor I RBA: FMAT beads, IL-13R alpha1/Fc
# Method: (§2) The plate was incubated for seven hours before being read in the 8200 cellular detection system (Applied Biosystems).
# This molecule was PEGylated via the C terminus using PEG-Maleimide with a branched 40K PEG2-MAL moiety.
# [7] = molecular target: T3, human IL-13; assay: IL-13 receptor I RBA: FMAT beads, IL-13R alpha1/Fc; remark: listed apart in the source
# Method: as §2
# [8] = molecular target: T3, human IL-13; assay: cell-based or functional assay; remark: listed apart in the source
# [9] = molecular target: T3, human IL-13; assay: IL-13 sandwich ELISA, competition with coating antibody
# Method: as §1
# [10] = molecular target: T3, human IL-13; assay: cell-based or functional assay; remark: listed apart in the source
# [11] = molecular target: T3, human IL-13; assay: assay not named ('Potency IC50')
# [12] = molecular target: T3, human IL-13; assay: IL-13 receptor binding assay (receptor chain not stated)
binder,measurement,setting,value
DOM10-275-1-DOM9-155-78 (bispecific antibody) EVQLLESGGGLVQPGGSLRLSCAASGFTFDREEMDWVRQAPGKGLEWVSTISPSGRKTYYADSVKGRFTISRDNSKNTLYLQMNSLRAEDTAVYYCAKAYTGFDYWGQGTLVTVSSASTKGPSDIQMTQSPSSLSASVGDRVTITCRASRHIGDWLHWYQQKPGKAPKLLIAWASTLDSGVPSRFSGSGSGTDFTLTISSLQPEDFATYYCLQEGWGPPTFGQGTKVEIKR,IC50,[1],39.2 nM
DOM9-112-210-DOM10-275-1 (bispecific antibody) EVQLLESGGGLVQPGGSLRLSCAASGFTFRNFGMGWVRQAPGKGLEWVSWIISSGTETYYADSVKGRFTISRDNSKNTLYLQMNSLRAEDTAVYYCAKSLGRFDYWGQGTLVTVSSASTKGPSEVQLLESGGGLVQPGGSLRLSCAASGFTFDREEMDWVRQAPGKGLEWVSTISPSGRKTYYADSVKGRFTISRDNSKNTLYLQMNSLRAEDTAVYYCAKAYTGFDYWGQGTLVTVSS,IC50,[1],44.9 nM
DOM9-155-11 (other) VL: DIQMTQSPSSLSASVGDRVTITCRASRNIGDWLHWYQQKPGKAPKLLIAWASTLDSGVPSRFSGSGSGTDFTLTISSLQPEDFATYYCLQEGWGPPTFGQGTKVEIKR,"average inhibition of HDM induced PBMC proliferation, 100 nM dAb, responding donors",[2],34%
"DOM9-155-5 (other, Vk dAb) VL: DIQMTQSPSSLSASVGDRVTITCRASLDIGDWLHWYQQKPGKAPKLLIAWASTLDSGVPSRFSGSGSGTDFTLTISSLQPEDFATYYCLQEGWGPPTFGQGTKVEIKR",binding result,[3],binds
DOM10-275-94 (other) VH: EVQLLESGGGLVQPGGSLRLSCAASGFTFDVAEMDWVRQAPGKGLEWVSTISPSRRGTYYADSVKGRFTISRDNSKNTLYLQMNSLRAEDTAVYYCAKAYTGRSWWGPGTLVTVSS,"EC50, HEK293 STAT6 SEAP reporter assay, cIL-13",[4],2 nM
same,"EC50, HEK293 STAT6 SEAP reporter assay, hIL-13",[5],2.3 nM
DOM10-275-99 (other) VH: EVHLLESGGGLVQPGGSLRLSCAASGFTFDSAEMDWVRQAPGKGLEWVSTISPSRRGTYYADSVKGRFTISRDNSKNTLYLQMNSLRAEDTAIYYCAKAYTGRSYWGPGTLVTVSS,"EC50, HEK293 STAT6 SEAP reporter assay, cIL-13",[4],2 nM
same,"EC50, HEK293 STAT6 SEAP reporter assay, hIL-13",[5],2.8 nM
DOM10-275-100 (other) VH: GVQLLESGGGLVQPGGSLRLSCAASGFTFDSAEMDWVRQAPGKGLEWVSTISPSRRGTYYADSVKGRFTISRDNSKNTLYLQMNSLRAEDTAVYYCAKAYTGRSYWGPGTLVTVSS,"EC50, HEK293 STAT6 SEAP reporter assay, cIL-13",[4],2.5 nM
same,"EC50, HEK293 STAT6 SEAP reporter assay, hIL-13",[5],2.8 nM
DOM10-275-101 (other) VH: GVQLLESGGGLVQPGGSLRLSCVASGFTFDVAEMDWVRQAPGKGLEWVSTISPSRRGTYYADSVKGRFTISRDNSKNTLYLQMNSLRAEDTAVYYCAKAYTGRSLWGPGTLVTVSS,"EC50, HEK293 STAT6 SEAP reporter assay, cIL-13",[4],1.8 nM
same,"EC50, HEK293 STAT6 SEAP reporter assay, hIL-13",[5],3.6 nM and 2 nM
"DOM10-53-343 40K PEG2 MAL (other, branched 40K PEG2-MAL on the C-terminal cysteine) VH: EVQLLESGGGLVQPGGSLRLSCAASGFIFAWYDMGWARQAPGKGLEWVSSIDWHGEVTYYADSVKGRFTISRDNSKNTLYLQMNSLRAEDTAVYYCATAEDEPGYDYWGQGTLVTVSSC",IC50,[6],0.033 nM
"DOM10-273 (other, VH dAb) VH: EVQLLESGGGLVQPGGSLRLSCAASGFTFELEEMDWVRQAPGKGLEWVSSISGSGGSTYYADSVKGRFTISRDNSKNTLYLQMNSLRAEDTAVYYCAKAYTGFDYWGQGTLVTVSS",IC50,[7],600 nM
"DOM10-275 (other, VH dAb) VH: EVQLLESGGGLVQPGGSLRLSCAASGFTFDREEMDWVRQAPGKGLEWVSTISPSGRKTYYADSVKGRFTISRDNSKNTLYLQMNSLRAEDTAVYYCAKHGTGFDYWGQGTLVTVSS",IC50,[7],1000 nM
"DOM10-276 (other, VH dAb) VH: EVQLLESGGGLVQPGGSLRLSCAASGFTFRDYEMDWVRQAPGKGLEWVSSIGPSGSETYYADSVKGRFTISRDNSKNTLYLQMNSLRAEDTAVYYCAKAYTSFDYWGQGTLVTVSS",IC50,[7],3000 nM
"DOM10-416 (other, VH dAb) VH: EVQLLESGGGLVQPGGSLRLSCAASGFTFKGSEMDWVRQAPGKGLEWVSTISADGRETYYADSVKGRFTISRDNSKNTLYLQMNSLRAEDTAVYYCAKSYTSFDYWGQGTLVTVSS",IC50,[7],6000 nM
"DOM10-53-234 (other, VH dAb) VH: GVQLLESGGGLVQPGGSLRLSCAASGFIFAWYDMGWARQAPGKGLEWVSSIDWHGNVTYYADSVKGRFTISRDNSKNTLYLQMNSLRAEDTAVYYCATAEDEPGYDYWGQGTLVTVSS","ND50, IL-13 induced TF-1 cell proliferation",[8],43 nM
same,IC50,[9],0.087 nM and 0.081 nM and 0.04 nM
"DOM10-53-338 40K PEG2 NHS (other, 40K PEG2-NHS on surface lysine residues (positions not stated), also called 40K PEGylated DOM10-53-338 dAb) VH: EVQLLESGGGLVQPGGSLRLSCAASGFIFAWYDMGWARQAPGKGLEWVSSIDWRGNVTYYADSVKGRFTISRDNSKNTLYLQMNSLRAEDTAVYYCATAEDEPGYDYWGQGTLVTVSS",IC50,[6],0.226 nM
same,"IC50, IL-13 induced TF-1 proliferation",[10],0.231 nM
"DOM10-53 (other, VH dAb) VH: GVQLLESGGGLVQPGGSLRLSCAASGFTFAWYDMGWARQAPGKGLEWVSSIDDSGTQTYYADSVKGRFTISRDNSKNTLYLQMNSLRAEDTAVYYCATAERDDTFDYWGQGTLVTVSS",IC50,[11],100 nM
same,IC50,[7],150 nM
"DOM10-53-343 (other, VH dAb) VH: EVQLLESGGGLVQPGGSLRLSCAASGFIFAWYDMGWARQAPGKGLEWVSSIDWHGEVTYYADSVKGRFTISRDNSKNTLYLQMNSLRAEDTAVYYCATAEDEPGYDYWGQGTLVTVSS",IC50,[6],0.136 nM
same,IC50,[12],0.23 nM
"DOM10-53-338 30K PEG ALD (other, 30K PEG-ALD on the N-terminus (alpha-amino group), also called 30K PEGylated DOM10-53-338 dAb) VH: EVQLLESGGGLVQPGGSLRLSCAASGFIFAWYDMGWARQAPGKGLEWVSSIDWRGNVTYYADSVKGRFTISRDNSKNTLYLQMNSLRAEDTAVYYCATAEDEPGYDYWGQGTLVTVSS",IC50,[6],0.169 nM
same,"IC50, IL-13 induced TF-1 proliferation",[10],0.181 nM
"DOM10-53-338 (other, VH dAb) VH: EVQLLESGGGLVQPGGSLRLSCAASGFIFAWYDMGWARQAPGKGLEWVSSIDWRGNVTYYADSVKGRFTISRDNSKNTLYLQMNSLRAEDTAVYYCATAEDEPGYDYWGQGTLVTVSS",IC50,[6],0.387 nM
same,"IC50, IL-13 induced TF-1 proliferation",[10],0.423 nM
"DOM10-176 (other, Vk dAb) VL: DIQMTQSPSSLSASVGDRVTITCRASQWIGPYLNWYQQKPGKAPKLLIYMGSYLQSGVPSRFSGSGSGTDFTLTISSLQPEDFATYYCQQDLYPPYTFGQGTKVEIKR",IC50,[7],100 nM
DOM9-112-22 (other) VH: EVQLLESWGGLVQPGGSLRLSCAASGFTFRNYGMAWVRQAPGKGLEWISWIDASGTETYYADPVKGRFTISRDNSKNTLYLQMNSLRAEDTAVYYCAKSLGRFDYWGQGTLVTVSS,"average inhibition of HDM induced PBMC proliferation, 100 nM dAb, responding donors",[2],23%
